Test: soluble on expression in E. coli; label from the status in PepcDB or PDB records

Sequence	soluble on expression in E. coli
MGSLVHVKEATVITPSDQTPSSVLSLSALDSQLFLRFTIEYLLVYPPVSDPEYSLSGRLKSALSRALVPYFPFSGRVREKPDGGGGLEVNCRGQGALFLEAVSDILTCLDFQKPPRHVTSWRKLLSLHVIDVLAGAPPLVVQLTWLRDGGAALAVGVNHCVSDGIGSAEFLTLFAELSKDSLSQTELKRKHLWDRQLLMPSPIRDSLSHPEFNRVPDLCGFVNRFNAERLVPTSVVFERQKLNELKKLASRLGEFNSKHTSFEVLSAHVWRSWARSLNLPSNQVLKLLFSVNIRDRVKPSLPSGFYGNAFVVGCAQTTVKDLTEKGLSYATMLVKQAKERVGDEYVRSVVEAVSKERASPDSVGVLILSQWSRLGLEKLDFGLGKPVHVGSVCCDRYCLLLPIPEQNDAVKVMVAVPSSSVDTYENLVTSPNA	not soluble
MLNARINQSIKCNQVRIHNVADKITWAELTKIEQLLKIIPQWEKLIKIQTTSKIFNSTSWVASWLETFWQKNWQLNVLIAWCDDELIAIVPLYYQQNNSILPMKVLYPLGQGEAEAQEISTEYTDILINEKFQEHLLPKIQQWILNLKADQLHWHALLHNSSTRNILADYEQTKSNEATRYIVNGLNWSLENLSKNMRSRYRRGLNQLDKLNATIDWVEQSDFDQYWQLMKKLHQKRWQGKNAKGAFCSDEFNQFHAKFREKSPKNIAMSAIWVNDTPIAIHYYFSDATTLYFYQSGWNESEYSHLSPGLILHLWTIENNNKPYYDFMMGKKKDSYKAKFATLQQPMYNITLTFSPIKLLFYSVFEKIKVKYLSA	not soluble
MCENTLAQQKTEEFAPVSDLRAEAYGSTVFLHWTPPYDNPMIPLSESFESGIPAIWKTIDADGDGYNWMHLTNFTGQSGLCVSSASYIGGVGALTPDNYLITPELKLPTDALVEIIYWVCTQDLTAPSEHYAVYSSSTGNNAADFVNLLYEETLTAKRIQSPELIRGNRTQGVWYQRKVVLPNDTKYVAFRHFNSTDNFWLNLDEVSILYTPLPRRAPCPHPGGYTYSVFRDGQKIASGLSALAYIDTDVPYGTQDYCVQVNYLQGDSYKVCKNIVVANSANIYGADKPFALTVVGKTIVASAFKGEITLYDIRGRLIASGCDTLRYKAENGFYLIKIQVNGTVYTEKIQIQ	not soluble
MSLLKVREMEREDVERVYEINRESFTTDAWSRFSFEKDFENKFSRRFVLEEDGKVVGYVIFWVVKEEATIMTFAIAPGYRGKGYGEKLLREAISRLGDKVKRVVLDVRKSNLRAINLYKKLGFKVVTERKGYYSDGENALLMELKISRPSEAELSREGHHHHHH	soluble
MAHHHHHHMRRQTRLFSRLAVEIPNSHWLPRRLLLVRHGESEANVDRSQYSRIPDWKIPLTERGRAQALDCGRRLRNIIKNEKLYIYYSPYVRTQQTLAEVRKSLEESQVQGEREDERLREQEIGNFQPLDKMDRTWDERSNFGRSYYRFPDGESSVDVGDRVSTFFDSLFRERLELYSLSAGDPEDEDGPLNVPGEDDQNVLIISHGLLIRLFIARWFRVPLEAFETMRNPPNCSIVVLERQESARMVMTDISKKLFGSDPLLEMMKFDGKDSTKRYRHMFFSDHSGSFTPAEGV	not soluble
MKRYPRDMRGHGPTPPDAAWPGGARIAVSIVLNYEEGGENCLLHGDAQSEAFLSDIAGAQPWPGQRHWNMESIYDYGARAGFWRLHRLFTGLNIPVTVYGVATALARSPEQVAAMKSAGWEIASHGLKWVEHRDMPEEEERRQIAEAIRLHAEVVGERPRGWYTGRCSVNTVRLTAEEGGFDWISDTYDDDQPYWLETGTRDQLVIPYTLEANDMRFATAPGYIEGEQFFTYLRDSFDTLYAEGCAGQAKMFSIGLHCRLIGRPGKIAGLKRFLDYARTHERVWFPCRGDIARHWHETHPHRRRPRPSRMDRESFVAHFGGIYEHSPWIAERAFELELGPAHDSPAGLANALARIFRSATPAERLSVLKAHPDLAGKLAQARRLTASSSFEQSSAGLDALTDAERAEFATLNADYVAKHGFPFIIAVRDHDKAGILAAFETRLAHDSATEFATACRQVERIAELRLQDMLKLEHHHHHH	not soluble
MHRRSIINHSRPDKLKRGMHVEIASNVINDLQFFDQQIRWAKADLVQQVSRNRLNRARTYRGYLNQCLPHELVADIQRAVIKSINAISLINLEHHHHHH	not soluble
MGSDKIHHHHHHMANNYMKRKDRIILTAVEIIDQLGVQGLTIREIASRQEISEAAIYRHFANKSEILLGTIDYFSSYDALLFRTIESQNMKAWEGITFLLASYTEYYENYPAITAVTFTQEAFQLEPEARERMENVIDNRLRFIKQMVIKGQKEGEFTRDICSEGIVDIIFGTVQFIILRWRAKNYDFALKEHVLSTLSILIEAFSTVKLENRFAWGGVFNQEVSSSTFDSVLTRPGLFLEKGKDQVNEKSEG	not soluble
MKKNTSKTTMRINKQDALCTPHSHDPRDLQNMLDGGEYAPFVSPPMLESNFIQVNRRGESIYLHNRANWVTVGICFSSSTHKIPNVMLLAHLTPGAQKDTETLFKSLLTSPPAEKLVLTRFLPLQFVTLSVHDAENMSLKVKLVSGRAYYLQLCTSAYKQDTLFSQWVALISLLNQEKAKVSKVSEVSSLSGITNSTDITGSMDVTDVTTFTAILTPYMYAGTGPEHVRDSIDFPEFTDITDITDVTDLPENEVPEVPDVRIVTEVIEVREATEVTDSSDITNCSGVTVVFENNDLIRAKQEEKEKLKNILKPGCLQDTKSKRYFQTTLTPVESEANTSKEMKDKTSEEKMPDFQSTALKAEESRSLRTESNTSVLSPHIKSPSNFLKLVPHLSAPFSRE	soluble
MIITGSFGNGHLQVTQSVVNQFKEMNLDNLTVIEHDLFLEAHPILTSICKKWYINSFKYFRNMYKAFYYSQPDQLDKCFYKYYGLNKLMNLLLKEKPDLILLTFPTPVMSVLTEQFDMNIPIATVMTDYRMQKNWITPFSQRYYLATEELKDEFASIGIPKDKLKVTGIPISDKFELEHHHHHH	soluble
MFMFEKPHGMRDTLPGLYETKKKVRRSLTDLIDKWGYQFMETPTLEFYDTVGVQSAIEEQQLFKLLDQDGKTLVLRPDMTGPIARVAASKLLKHGHPLRVGYAANVFRAQEREGGRPAEFEQVGVELIGDGTTSADAEVIALVVGALKNAGLASFKIAIGHAGIADALFVEVLGNVERADVLRRFLYEKNYVGYREHVKSLPLSSIDKSRLLELLELRGGIEVCGRAEEIVDSAQGKSVVDELKALWDILEDYGCTENVRLDLNMVSHMSYYTGILFEVYAENVGFVIGSGGRYNKLLGHFDSPAPATGFGLRIDRLIEALHMKDEPCEIDAVIFSKEQRAQAIAYANEERMKGNKVVLQDLSGIENIDQMTKSFANVTYFIGARKEEQNG	not soluble
MEHKIREEMRVLPSIDPQFEIERRVAFIKRKLTEARCKSLVLGISGGVDSTTCGRLAQLAVEELNQQHNTTEYQFIAVRLPYGEQKDEDEAQLALSFIRPTHSVSVNIKAGVDGLHAASHHALANTGLIPSDPAKVDFIKGNVKARARMVAQYEIAGYVGGLVLGTDHSAENITGFYTKFGDGACDLAPLFGLNKRQVRLLAKTLGAPEQLVYKTPTADLEELAPQKADEAALNLTYEQIDDFLEGKAVPAEVSQRLVAIYHATQHKRQPIPTIYD	soluble
MGSDKIHHHHHHMMNVLRDGCSERGTARVGKHHDLKTVRWYVLTLPTTGVARRDKISPAKSLDAELSRRKRRGETLFEYFAPSYVEVRKVDGKMVNTKRPLLFNYVFIRSSVEEIFQMKRTLPLYNFLPRVSSGGMTHFPYLSDSEMGNLRWVAESYSNELPVYVPDSNRLLKGDRVRITSGYFTGMEAEVVIQPGGGHKDVMARILDCMWVPLLEVKPGEYELIELNTKGKHAYTHLDNDRLREGLHDALGRYHTSGSVAEEDTRLACEVLRSYGSLRAETDVMRCKIYSLLLSAYKLLGDEEEFTRLHDTMRGMLPVVKAPQSRALLLVTLYGCTDSALYRQMAHEVVDPWRGESSPKKSKLSLIRRLDDCDRWLRHNE	not soluble
MNLSEITQQMGEVGKTLSDSVPELLNSTDLVNDPEKMLELQFAVQQYSAYVNVESGMLKTIKDLVSTISNRSF	not soluble
